Measurements reported in patent publication US20120308564A1 (published 2012).

Legend:
human IL-18 [1] = target: T1, human IL-18 (human, UniProt Q14116 37-193); assay: method not given; the same paragraph names BIAcore and FORTEbio as possible methods and mentions 25 C
T1 construct: also called Interleukin-18
T1 sequence (looked up): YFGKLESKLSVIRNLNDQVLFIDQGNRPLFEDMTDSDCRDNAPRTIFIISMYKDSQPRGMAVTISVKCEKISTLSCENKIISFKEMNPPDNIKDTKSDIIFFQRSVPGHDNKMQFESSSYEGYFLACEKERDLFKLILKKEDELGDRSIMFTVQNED

human IL-18 [2] = target: T1, human IL-18; assay: cell-based or functional assay

B1: H1L2 (SEQ ID NO:7 and SEQ ID NO:11) (antibody, human IgG1, kappa, V domains shown)
VH: QVQLVQSGAEVKKPGASVKVSCKVSGEISTGYYFHWVRQAPGKGLEWMGRIDPEDDSTKYAERFKDRVTMTEDTSTDTAYMELSSLRSEDTAVYYCTTWRIYRDSSGRPFYVMDAWGQGTLVTVSS
VL: DIQMTQSPSSVSASVGDRVTITCLASEDIYTYLTWYQQKPGKAPKLLIYGANKLQDGVPSRFSGSGSGTDYTLTISSLQPEDFATYYCLQGSKFPLTFGQGTKLEIKR
notes: also called anti-IL-18 antibody H1L2
- Kd (human IL-18 [1]): 0.0303 nM
- IL-6 gene expression in IL-18 stimulated ex-vivo human whole blood (Affymetrix microarray), IL-18 50 ng/ml + H1L2 1 ug/ml vs IL-18 alone (human IL-18 [2]): 7 fold decrease
- IRS2 gene expression in IL-18 stimulated ex-vivo human whole blood (microarray), IL18+H1L2 vs IL18 alone (human IL-18 [2]): 1.4 fold increase
- JAK2 gene expression in IL-18 stimulated ex-vivo human whole blood (microarray), IL18+H1L2 vs IL-18 alone (human IL-18 [2]): 2.1 fold decrease
- MCP-1 gene expression in IL-18 stimulated ex-vivo human whole blood (microarray), IL18+H1L2 vs IL18 alone (human IL-18 [2]): 2.6 fold decrease
- MCP-4 gene expression in IL-18 stimulated ex-vivo human whole blood (microarray), IL18+H1L2 vs IL18 alone (human IL-18 [2]): 2.5 fold decrease
- PPAR gamma gene expression in IL-18 stimulated ex-vivo human whole blood (microarray), IL18+H1L2 vs IL18 alone (human IL-18 [2]): 1.7 fold increase
- SOCS3 gene expression in IL-18 stimulated ex-vivo human whole blood (microarray), IL18+H1L2 vs IL-18 alone (human IL-18 [2]): 1.9 fold decrease
- STAT3 gene expression in IL-18 stimulated ex-vivo human whole blood (microarray), IL18+H1L2 vs IL-18 alone (human IL-18 [2]): 1.6 fold decrease
